According to paper PMC10066265, “Inhibitor-3 inhibits Protein Phosphatase 1 via a metal binding dynamic protein–protein interaction” (Nature Communications, 2023):
Where “and” joins values, the source holds several entries; their conditions need not be identical. Equal entries are not always repeated.

How the values were obtained:
PP1α7-330 [1] = biological target: PP1α7-330 (UniProt P62136)
PP1α_(7-330) = biological target: T1, PP1α_(7-330) (UniProt P62136 7-330); test: SPR; His6-PP1 captured on Ni-NTA chip (NiHC200M), I3 variants injected; 25 °C; 20 mM Tris pH 8.0, 500 mM NaCl, 1 mM MnCl2, 0.5 mM TCEP, 0.05% Tween-20; one-to-one one state or one-to-one two state model (TraceDrawer); settings: both partners purified
T1 construct: Protein Phosphatase 1 alpha (PP1α), residues 7-330; His6-PP1 was captured on the Ni-NTA sensor chip as the SPR ligand; Mn2+ in all buffers; also called Protein Phosphatase 1; His6-PP1; source: E. coli, purified (Ni-NTA, SEC)
T1 sequence (P62136 7-330): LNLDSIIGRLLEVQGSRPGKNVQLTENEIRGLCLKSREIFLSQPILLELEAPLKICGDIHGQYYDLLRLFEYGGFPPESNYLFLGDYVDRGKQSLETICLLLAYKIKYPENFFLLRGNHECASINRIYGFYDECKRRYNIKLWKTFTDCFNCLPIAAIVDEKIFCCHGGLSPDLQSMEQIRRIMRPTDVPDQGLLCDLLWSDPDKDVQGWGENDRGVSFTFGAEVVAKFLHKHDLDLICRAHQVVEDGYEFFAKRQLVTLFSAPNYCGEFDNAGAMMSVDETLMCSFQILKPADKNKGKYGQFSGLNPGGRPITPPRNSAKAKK

His6-PP1α_(7-330) [2] = biological target: T2, His6-PP1α_(7-330) (UniProt P62136 7-330); test: cell-based or functional assay
T2 sequence (P62136 7-330): as above

His6-PP1α_(7-330) [3] = biological target: T2, His6-PP1α_(7-330); test: SPR; His6-PP1 captured on a Ni-NTA sensorchip (NiHC200M), I3 variants injected; 25 °C; 20 mM Tris pH 8.0, 500 mM NaCl, 1 mM MnCl2, 0.5 mM TCEP, 0.05% Tween-20; one-to-one one state or one-to-one two state model; settings: both partners purified
PP1α7-330 [4] = biological target: T3, PP1α7-330 (UniProt P62136 7-330); test: SPR; His6-PP1 captured on a Ni-NTA sensor chip (NiHC200M), I3 variants injected; 25 °C; 20 mM Tris pH 8.0, 500 mM NaCl, 1 mM MnCl2, 0.5 mM TCEP, 0.05% Tween-20; one-to-one one-state or one-to-one two-state fit; settings: both partners purified
T3 construct: Protein Phosphatase 1 alpha catalytic subunit, residues 7-330; For SPR the His6-tagged PP1 was captured on a Ni-NTA chip; also called Protein Phosphatase 1; PP17-330; source: bacterial expression as previously described, purified (Ni-NTA, SEC)
T3 sequence (P62136 7-330): as above

Sequence of PP1α7-330 (UniProt P62136) (P62136 7-330): as above

Row | Binder | Kd (PP1α_(7-330)) | IC50 of PP1 inhibition (dephosphorylation of the H3pT3 peptide, released Pi) (His6-PP1α_(7-330) [2]) [nM] | Kd (His6-PP1α_(7-330) [3]) [nM] | other results
1 | SLTIKLRKRKPEKKVEWTSDTVDNEHMGRRSSKCCCIYEKPR (domain or fragment) [I327-68 (I3 PP1 interaction domain)] | – | – | – | Supplementary Figure 5A: IC50 of PP1 inhibition by I3 27-68 (dephosphorylation of the H3pT3 peptide) in the presence of 1.3 mM DTT; I3 exchanged into buffer without 0.5 mM TCEP (PP1α7-330 [1]): 70 nM
2 | SLTIKLRKRKPEKKVEWTSDTVDNEHMGRRSSKCCCAAEKPR (domain or fragment, human, UniProt O60927 27-68, looked up, PPP1R11), human, residues 27-68, I63A/Y64A; also called I3_(27-68) IY; source: E. coli BL21 (DE3), purified (Ni-NTA, TEV cleavage, heat, SEC); not shown: His6, N-terminal, cleaved; MBP, N-terminal, cleaved) | 19 nM and 13.1 nM and 14.3 nM and 15.5 nM | – | – | –
3 | SLTIKLRKRKPEKKVEWTSDTVDNEHMGRRSSKCCSIYEKPR (domain or fragment, human, UniProt O60927 27-68, looked up, PPP1R11), human, residues 27-68, C62S; source: E. coli BL21 (DE3), purified (Ni-NTA, TEV cleavage, heat, SEC); not shown: His6, N-terminal, cleaved; MBP, N-terminal, cleaved) | 16.1 nM and 17.4 nM and 28.3 nM | – | – | –
4 | SLTIKLRKRKPEKKVEWTSDTVDNEHMGRRSSKSSSIYEKPR (domain or fragment, human, UniProt O60927 27-68, looked up, PPP1R11), human, residues 27-68, C60S/C61S/C62S; also called I3_27-68_60SSS62; I3_(27-68) SSS; source: E. coli BL21 (DE3), purified (Ni-NTA, TEV cleavage, heat, SEC); not shown: His6, N-terminal, cleaved; MBP, N-terminal, cleaved) | 409 nM and 421 nM and 406 nM | – | – | koff (PP1α_(7-330)): 0.0719 s⁻¹ and 0.0774 s⁻¹ and 0.0728 s⁻¹ and 0.074 s⁻¹; kon (PP1α_(7-330)): 176000 M⁻¹ s⁻¹ and 184000 M⁻¹ s⁻¹ and 179000 M⁻¹ s⁻¹ and 180000 M⁻¹ s⁻¹
5 | SLTIKLRKRKPEKKVEWTSDTVDNEHMGRRSSKSSCIYEKPR (domain or fragment, human, UniProt O60927 27-68, looked up, PPP1R11), human, residues 27-68, C60S/C61S; also called I3_27-68_SSC; source: E. coli BL21 (DE3), purified (Ni-NTA, TEV cleavage, heat, SEC); not shown: His6, N-terminal, cleaved; MBP, N-terminal, cleaved) [SSC: I3_(27-68) C60S/C61S] | 88 nM and 81.1 nM and 88.3 nM and 89.6 nM | – | – | –
6 | SLTIKLRKRKPEKKVEWTSDTVDNEHMGRRSSKCSCIYEKPR (domain or fragment, human, UniProt O60927 27-68, looked up, PPP1R11), human, residues 27-68; source: E. coli BL21 (DE3), purified (Ni-NTA, TEV, heat 95 °C, SEC); not shown: His6, N-terminal, cleaved; MBP, N-terminal, cleaved) | – | 158 | 18.8 ± 0.9 | –
7 | SLTIKLRKRKPEKKVEWTSDTVDNEHMGRRSSKSSSIYEKPR (domain or fragment, human, UniProt O60927 27-68, looked up, PPP1R11), human, residues 27-68; also called I3_(27-68)SSS; I3_(27-68) SSS; source: E. coli BL21 (DE3), purified (Ni-NTA, TEV, heat 95 °C, SEC); not shown: His6, N-terminal, cleaved; MBP, N-terminal, cleaved) | – | 380 | 412 ± 6 | –
8 | SLTIKLRKRKPEKKVEWTSDTVDNEHMGRRSSKSCSIYEKPR (domain or fragment, human, UniProt O60927 27-68, looked up, PPP1R11), human, residues 27-68, C60S/C62S; also called I3_27-68_SCS; source: E. coli BL21 (DE3), purified (Ni-NTA, TEV cleavage, heat, SEC); not shown: His6, N-terminal, cleaved; MBP, N-terminal, cleaved) | 45.5 nM and 63.4 nM and 53.1 nM | – | – | –
9 | SLTIKLRKRKPEKKVEWTSDTVDNEHMGRRSSKSCSIYEKPR (domain or fragment, human, UniProt O60927 27-68, looked up, PPP1R11), human, residues 27-68; source: E. coli BL21 (DE3), purified (Ni-NTA, TEV, heat 95 °C, SEC); not shown: His6, N-terminal, cleaved; MBP, N-terminal, cleaved) | – | 179 | 54 ± 9 | –
10 | SLTIKLRKRKPEKKVEWTSDTVDNEHMGRRSSKSCCIYEKPR (domain or fragment, human, UniProt O60927 27-68, looked up, PPP1R11), human, residues 27-68; source: E. coli BL21 (DE3), purified (Ni-NTA, TEV, heat 95 °C, SEC); not shown: His6, N-terminal, cleaved; MBP, N-terminal, cleaved) [SCC: I3_(27-68) C60S] | – | 243 | 21.7 ± 3.1 | –
11 | SLTIKLRKRKPEKKVEWTSDTVDNEHMGRRSSKCSSIYEKPR (domain or fragment, human, UniProt O60927 27-68, looked up, PPP1R11), human, residues 27-68; source: E. coli BL21 (DE3), purified (Ni-NTA, TEV, heat 95 °C, SEC); not shown: His6, N-terminal, cleaved; MBP, N-terminal, cleaved) | – | 153 | 21.2 ± 0.6 | –
12 | SLTIKLRKRKPEKKVEWTSDTVDNEHMGRRSSKCSCIYEKPR (domain or fragment, human, UniProt O60927 27-68, looked up, PPP1R11), human, residues 27-68, C61S; source: E. coli BL21 (DE3), purified (Ni-NTA, TEV cleavage, heat, SEC); not shown: His6, N-terminal, cleaved; MBP, N-terminal, cleaved) | 20.1 nM and 18.7 nM and 17.5 nM | – | – | –
13 | SLTIKLRKRKPEKKVEWTSDTVDNEHMGRRSSKCCCAAEKPR (domain or fragment, human, UniProt O60927 27-68, looked up, PPP1R11), human, residues 27-68; also called I3_(27-68) IY; source: E. coli BL21 (DE3), purified (Ni-NTA, TEV, heat 95 °C, SEC); not shown: His6, N-terminal, cleaved; MBP, N-terminal, cleaved) | – | – | 15.6 ± 2.4 | –
14 | SLTIKLRKRKPEKKVEWTSDTVDNEHMGRRSSKCSSIYEKPR (domain or fragment, human, UniProt O60927 27-68, looked up, PPP1R11), human, residues 27-68, C61S/C62S; also called I3_27-68_CSS; source: E. coli BL21 (DE3), purified (Ni-NTA, TEV cleavage, heat, SEC); not shown: His6, N-terminal, cleaved; MBP, N-terminal, cleaved) | 20.7 nM and 21.6 nM | – | – | –
15 | SLTIKLRKRKPEKKVEWTSDTVDNEHMGRRSSKCCSIYEKPR (domain or fragment, human, UniProt O60927 27-68, looked up, PPP1R11), human, residues 27-68; source: E. coli BL21 (DE3), purified (Ni-NTA, TEV, heat 95 °C, SEC); not shown: His6, N-terminal, cleaved; MBP, N-terminal, cleaved) | – | 171 | 20.6 ± 5.1 | –
16 | SLTIKLRKRKPEKKVEWTSDTVDNEHMGRRSSK (domain or fragment, human, UniProt O60927 27-59, looked up, also called I3 CCCdeletion; source: E. coli BL21 (DE3), purified (Ni-NTA, TEV cleavage, heat 95 °C, SEC); not shown: His6, N-terminal, cleaved; MBP, N-terminal, cleaved) [CCCdeletion: I327-59 (Δ60-68)] | – | – | – | koff (PP1α7-330 [4]): 0.0766 s⁻¹; kon (PP1α7-330 [4]): 210000 M⁻¹ s⁻¹
17 | SLTIKLRKRKPEKKVEWTSDTVDNEHMGRRSSK (domain or fragment, human, UniProt O60927 27-59, looked up, PPP1R11), human, residues 27-59; also called I3 CCC_(deletion) variant; I3_(27-68) CCC_(deletion); source: E. coli BL21 (DE3), purified (Ni-NTA, TEV, heat 95 °C, SEC); not shown: His6, N-terminal, cleaved; MBP, N-terminal, cleaved) | – | 422 | 376 ± 47 | –
18 | SLTIKLRKRKPEKKVEWTSDTVDNEHMGRRSSK (domain or fragment, human, UniProt O60927 27-59, looked up, PPP1R11), human, residues 27-59; also called CCCdead: I327-59 (Δ60-62); I3 27-59 (CCC dead); source: E. coli BL21 (DE3), purified (Ni-NTA, TEV cleavage, heat, SEC); not shown: His6, N-terminal, cleaved; MBP, N-terminal, cleaved) | 447 nM and 329 nM and 352 nM | – | – | koff (PP1α_(7-330)): 0.0749 s⁻¹ and 0.0798 s⁻¹ and 0.0752 s⁻¹ and 0.0766 s⁻¹; kon (PP1α_(7-330)): 168000 M⁻¹ s⁻¹ and 242000 M⁻¹ s⁻¹ and 213000 M⁻¹ s⁻¹ and 208000 M⁻¹ s⁻¹
